Measured values published in patent publication US20150005238A1 (PAION DEUTSCHLAND, published 2015).
Changes are numbered by the printed parent chain.

B1: TME with Ala inserted between 386 and 387 (receptor)
chain: CSVENGGCEHACNAIPGAPRCQCPAGAALQADGRSCTASATQSCNDLCEHFCVPNPDQPGSYSCMCETGYRLAADQHRCEDVDDCILEPSPCPQRCVNTQGGFECHCYPNYDLVDGECVEPVDPCFRANCEYQCQPLNQTSYLCVCAEGFAPIPHEPHRCAQMFCNQTACPADCDPNTQASCECPEGYILDDGFICTDIDECENGGFCSGVCHNLPGTFECICGPDSALARHIGTDC
B2: TME with Ala inserted between 387 and 388 (receptor)
chain: B1 chain with A161Q, Q162A
B3: TME with Ala inserted between 388 and 389 (receptor)
chain: B1 chain with A161Q, Q162M, M163A
B4: TME with Ala inserted between 389 and 390 (receptor)
chain: B1 chain with A161Q, Q162M, M163F, F164A
B5: TME with deletion of Gln387 (receptor)
chain: CSVENGGCEHACNAIPGAPRCQCPAGAALQADGRSCTASATQSCNDLCEHFCVPNPDQPGSYSCMCETGYRLAADQHRCEDVDDCILEPSPCPQRCVNTQGGFECHCYPNYDLVDGECVEPVDPCFRANCEYQCQPLNQTSYLCVCAEGFAPIPHEPHRCMFCNQTACPADCDPNTQASCECPEGYILDDGFICTDIDECENGGFCSGVCHNLPGTFECICGPDSALARHIGTDC
B6: TME with deletion of Phe389 (receptor)
chain: B5 chain with M161Q, F162M
B7: TME with deletion of Met388 (receptor)
chain: B5 chain with M161Q
B8: Recombinant soluble thrombomodulin (Solulin) (receptor)
chain: EPQPGGSQCVEHDCFALYPGPATFLNASQICDGLRGHLMTVRSSVAADVISLLLNGDGGVGRRRLWIGLQLPPGCGDPKRLGPLRGFQWVTGDNNTSYSRWARLDLNGAPLCGPLCVAVSAAEATVPSEPIWEEQQCEVKADGFLCEFHFPATCRPLAVEPGAAAAAVSITYGTPFAARGADFQALPVGSSAAVAPLGLQLMCTAPPGAVQGHWAREAPGAWDCSVENGGCEHACNAIPGAPRCQCPAGAALQADGRSCTASATQSCNDLCEHFCVPNPDQPGSYSCMCETGYRLAADQHRCEDVDDCILEPSPCPQRCVNTQGGFECHCYPNYDLVDGECVEPVDPCFRANCEYQCQPLNQTSYLCVCAEGFAPIPHEPHRCQLFCNQTACPADCDPNTQASCECPEGYILDDGFICTDIDECENGGFCSGVCHNLPGTFECICGPDSALAGQIGTDCDSGKVDGGDSGAGEPPPSPTPGSTLTPP
notes: Obtained from PAION; also called sTM; recombinant human soluble thrombomodulin

Legend:
[1] = target: thrombin (APC / TAFI activation assays of Examples V, VI and VIII; source not stated for the assay); assay: cell-based or functional assay
human thrombin = human thrombin (human, UniProt P00734 328-622); assay: equilibrium binding titration in solution; perturbation of DAPA fluorescence (20 nM thrombin, 20 nM DAPA, Solulin titrated), nonlinear regression
Protocol: The binding of thrombin to thrombomodulin was measured as an equilibrium binding assay. A solution containing thrombin (20 nM), thrombomodulin (1.54 μM), and DAPA (20 nM, dansylarginine N-3-(ethyl-1,5-pentanediyl)amide, a fluorescent, reversible thrombin inhibitor) in 0.02 M Tris-HCl, 0.15 M NaCl, 5.0 mM CaCl₂, 0.01% Tween 80, pH 7.4, was added in small successive aliquots to an otherwise identical solution that lacked thrombomodulin. The additions were performed in a cuvette fitted with a magnetic stirrer in the sample compartment of a Perkin-Elmer model LS50B spectrofluorimeter. Intensity values were continuously recorded with excitation and emission wavelengths of 280 and 545 nm, respectively. A 430-nm cut-off filter was used in the emission beam. The intensity of fluorescence, I, was assumed to be the sum of intensities from thrombin-DAPA (T·D) and thrombin-thrombomodulin-DAPA (T·TM·D). That is, I=i₁·[T·D]+i₂·[T·TM·D], where i₁ and i₂ are the coefficients of fluorescence for T·D and T·TM·D (since excitation was at 280 nm, the emission from free DAPA was negligible).

Row | Binder | cofactor activity (APC assay) [1] | Kd (human thrombin) [nM]
1 | B1 | < 10 % of wild type TME | 
2 | B2 | < 10 % of wild type TME | 
3 | B3 | < 10 % of wild type TME | 
4 | B4 | < 10 % of wild type TME | 
5 | B5 | < 10 % of wild type TME | 
6 | B6 | < 10 % of wild type TME | 
7 | B7 | < 10 % of wild type TME | 
8 | B8 |  | 23
